B1: His6-pro-Caspase-9 (protein)
chain: HHHHHHMDEADRRLLRRCRLRLVEELQVDQLWDALLSRELFRPHMIEDIQRAGSGSRRDQARQLIIDLETRGSQALPLFISCLEDTGQDMLASFLRTNRQAAKLSKPTLENLTPVVLRPEIRKPEVLRPETPRPVDIGSGGFGDVGALESLRGNADLAYILSMEPCGHCLIINNVNFCRESGLRTRTGSNIDCEKLRRRFSSLHFMVEVKGDLTAKKMVLALLELAQQDHGALDCCVVVILSHGCQASHLQFPGAVYGTDGCPVSVEKIVNIFNGTSCPSLGGKPKLFFIQACGGEQKDHGFEVASTSPEDESPGSNPEPDATPFQEGLRTFDQLDAISSLPTPSDIFVSYSTFPGFVSWRDPKSGSWYVETLDDIFEQWAHSEDLQSLLLRVANAVSVKGIYKQMPGCFNFLRKKLFFKTS
B2: recombinant active Caspase-3 (protein)
chain: SGISLDNSYKMDYPEMGLCIIINNKNFHKSTGMTSRSGTDVDAANLRETFRNLKYEVRNKNDLTREEIVELMRDVSKEDHSKRSSFVCVLLSHGEEGIIFGTNGPVDLKKITNFFRGDRCRSLTGKPKLFIIQACRGTELDCGIETDSGVDDDMACHKIPVEADFLYAYSTAPGYYSWRNSKDGSWFIQSLCAMLKQYADKLEFMHILTRVNRKVATEFESFSFDATFHAKKQIPCIVSMLTKELYFYH

Experiments:
[1] = target: combination of His6-HBXIP and Survivin
[2] = target: purified recombinant Survivin (untagged)

Protein	Caspase-9 activity (cleavage of Ac-LEHD-AFC) and pro-Caspase-9 processing after Apaf1, Cytochrome C and dATP [1]	Caspase-9 activity (cleavage of Ac-LEHD-AFC) and pro-Caspase-9 processing after Apaf1, Cytochrome C and dATP (His6-HBXIP)	Caspase-9 activity (cleavage of Ac-LEHD-AFC) and pro-Caspase-9 processing after Apaf1, Cytochrome C and dATP [2]	Caspase-3 protease activity, hydrolysis of Ac-DEVD-AFC [2]
B1	the combination of Survivin and HBXIP effectively suppressed generation of Caspase-9 protease activity	Addition of either recombinant purified Survivin or HBXIP individually was ineffective at blocking Apaf1-mediated activation and proteolytic processing of pro-Caspase-9 in vitro.	Addition of either recombinant purified Survivin or HBXIP individually was ineffective at blocking Apaf1-mediated activation and proteolytic processing of pro-Caspase-9 in vitro.	
B2				Even at a 1000-fold molar excess of Survivin relative to active Caspase-3, essentially no inhibition was observed.
